Assay: yeast display, Sf9 membrane polyspecificity reagent, FACS + sequencing; frameworks hold sequencing errors
Summary of the method: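 After 36–48 hours of galactose induction, yeast (Saccharomyces cerevisiae BJ5465) displaying a synthetic nanobody library were stained at 4 °C for 1 hour with 10% biotinylated, detergent-solubilized Sf9 membrane reagent. Streptavidin microbeads enriched the stained cells before FACS sorting into low and high (top ~1%) gates on anti-HA and streptavidin fluorescence. Each clone's polyreactivity label reflects its gate of origin.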

| Sequence | polyreactivity (PSR sort gate) |
| --- | --- |
| QVHLLESGGGLLQAGGSLRLSCAASGLIFRPYAMGWYRQAPGKERELVAGISFRGDSTYYADSVKGRFTISRDNAKNTVYLHMNSLKPEDTAVYYWNKRKASSSGYNYWGQGTQVTVSS | low polyreactivity |
| QVQLVESGGGLVQAGGSLRLSCAASGRIFWYYAMGWYRQAPGKERELVASIRWGGGNTYYADSVKGRFTISRDNAKNTVYLQMNSLKPEDTAVYYCAKSKVSPSGDFYYWGQGTQVTVSS | high polyreactivity |
| QVQLVESGGGLVQAGGSLRLSCAASGFTFARNAMGWNRQAPGKERELVASITQRGGSTNYADSVKGRFTISRDNAKNTVYFQLNSLKPEDTAVYYCNKASQLYYIQGTYSYGYWGQGSQVTVSS | low polyreactivity |
| QVQLVESGGGLVQAGGRLRLSCAASGLTFPRNAMGWYRQAPGKERELVAAISWRGSSTYYADSVKGRFTISRDNAKNTVFLQMNSLQPEDTAVYYCAASYAGGQHDYWGQGTQVTVSS | high polyreactivity |
| QVQLVESGGGLVHAGGSLRISCAASGRTFWVYAMGWYRKAPGKERELVAAISWSGGRTYYADSVKGRFTISRDNAKNTVYLQMNSLKPEDTAVYYCAATTGVRSRRYYYWGQGTQVTVSS | low polyreactivity |
| QVQLVESGGGLVQAGGSLRLSCAASGITFPRYTMGWYRQAPGTERELVAAISSGGSTYYADSVKGRFTISRDNAKNTVYLQMNSLKPEDTAVYYCNAEVPYWYYIYDYWGQGTQVTVSS | high polyreactivity |
| QVQLVESGGGLVQAGGSLRLSCAASGSIVSGYAMRWYRQAPGKQRELVAAISRGGSTNYADSVKGRFTISRDNAKNTVYLQMNSLKPEDTAVYYCANTPTKYHYAFGYWGQCTQVTVSS | low polyreactivity |
| QVQLVESGGALVQAGGSLRLSCAASGFTFNVYAMGWYRPAPGKERELVAAITSSGGSTYYADSVKGRFTISRDNAKNTVYLQMNSLIPDDTAVYYCNVVRDWLLYRGSYIVKFDYWGQGTQVTVSS | high polyreactivity |
| QVQLVESGGGLVQAGGSLRLSCAASGLTFWRYTMGWYRPAPGKERELVAVITYRGGSTYYADSVKGRFTISRDYAKNTVYLQMNSLKPEDTAVYYCAAGLSTYGLTYDYWGQGTQVTVSS | high polyreactivity |
| QVQLVESGGGLVQAGGSLRLSCAASGSIFARYAMGWYRQAPGKERELVAAISSNSASTYYADSVKGRFTSSRDNAKNTVYLQMNSLKPEDTAVDYCATAYRSDWLNDYWGQGTQVTVSS | low polyreactivity |
| QVQLVESGGGLVQAGGSLRLCCAASGITFNYYTMGWYRQAAGNERELVAAIRSGGRTYYADSVKGRFTISRDNAKNTVYLQMNSLKPEDTAVYYGAALAVTYPYDYWGQGTQVTVSS | high polyreactivity |
| QVHLVESGGGLVQAGGSLRLSCAASGLIFYDNMGWYRQAPGKERELVAAISSSGGSTSYADSVKGRFTISRDNAKNTVYLQMYSLKPEDTAVYYCAADSYPAYLGFVGYDYWGQGTQVTVSS | low polyreactivity |
| QVQLVESGGGLVQAGGSLRLSCAASGSTFKKYAMGWYRQAPGKERELVAAITWTGGSTYYADSVKGRFTISRDNAKNTVYLQMNSLKPEDTAVYYCAAYKTYAVKYYWGQGTQVTVSS | high polyreactivity |
| QVQLVESGGGLVQAGGSLPLSCAASGITIYGYAMGWYRQAPGKESELVAAMSTSGGRTYYADSVKGRFTISRDNAKNTVYLQMNSMKPEDTAVYYCAVAPYKGTWDSRSSWRRRAYWGQGTQVTVSS | high polyreactivity |
| QVQLVESGGGLVQAGGSLRLSCAASGRTFAYNTMGWYRQAPGKERELVARINSGTSTYYADSVKGRFTISRDNAKNTVYLEMNSLKPEDTAVYYCAARGSDYIRWYVGGRYGYWGQGSQVTVSS | low polyreactivity |
| QVQLVESGGGLVQAGGSPRLSCAASGRIFHPYAMGWYRQAPGKERELVATISWSGGSTTYADSVKGRFTISRDNAKNTVYLQMNSLKPEDTAVYYCNADYWWSYVRFDYWGQGTQVTVSS | low polyreactivity |
| QVQLVESGGGILQAGGSLRLSCAASGSTFSYYAMGWYRQAPGKERELVAAISYSGGRTYYADSVKGRFTISRDNAKNTVYLQMNSLKPEDTAVYYCAASGVFDSTRGVYYWGQGTQVTVSS | high polyreactivity |
| QVHLVESGGGLVQAGASLRLSCAASGFTFGVNAMGWSRQAPGKERELVAVITSGGNTYYADSVKGRFTISRDNAKNTVYLHMNSLNPEDTAVYYCAAYGRASWERDYWGKGTQVTVSS | low polyreactivity |
| QVQLVDSGGGLVQAGVSLRLSCAASGSIFLLNAMGWYRQATGKERELVAAISWGGGSTYYADSVKGRFTISRDNAKNTVYLQMNSLKPEDTAVDYCNASVTLGQEVDYWGLGTQVTVSS | low polyreactivity |
| QVQLVESGGGLVQAGGSLRLSCAASGSTFVYNARGWYRQAPGKERELVAAISRRGGSTYYADSVKGRFTISRDNAKNTVYLQMNSLKPEDTAVYYCAADQYRTNSYRYDYWGQGTQVTVSS | low polyreactivity |
| QVQLVESGGGLVQAGGSLLLSCAASGITFGVYAMGWYRQAPGKERELVAAISVNGGSTYYADSVKGRFTISRDNAKNTVYLQMNSLNPQDTAVYSCAADVLYYIDDDSIIEYDYWGQGTQVTVSS | low polyreactivity |
| QVQLVESGGGLVQAGGSLRLSCPASGNIFGNNAMGWYRQAPGKERELVAAIDGSGGSTYYADSVKGRFTISRDKAKNTVYLQMNSLKPEDTAVYYCAKTAVIWRTWRTVPSPGYHFGYWGQGTQVTVSS | low polyreactivity |

| Sequence | polyreactivity (PSR sort gate) |
| --- | --- |
| QVQLVESGGGFVQAGGSLRLSCAASGSILRSYAMGWYRQAPGKERELVAVINGSGGRTYYADSVKGRFTISRDNAKNTVYLQMNSLKPEDTAVYYCNADPGGRYPRRGYAHEGDYWGQGTQVTVSS | low polyreactivity |
| QVQLVESGGGLVQAGGSLRVSCAASGFISGYYTMRWYRQAPGKEWELVAVINSGGSTYYADSVKGRFTISRDNAKNTVYLQMNSLKPEDTAVYYCAKLGGKYSRYYYWGQGTQVTVSS | low polyreactivity |
| QVQLVESGGGLVQAGGSLRLSCAASGSIFSYYVKGWYRQAPGKERELVAVITDRGGRTYYADSVKGRFTISRDNAKNPVYLQMNSLKPEDTAVYYCNKYIRRYLIYGSWGQGTQVTVSS | high polyreactivity |
| QVQLVESGGGLVQAGGSLLLSCAASGRIFQFYAMGWYRQAPGKERELVAGITTSGGSTYYADSVKGRFTISRDTAKNTVYLQMNSLKPEDTAVYYCAKRYYSSQFSKFGYWGQGSQVTVSS | high polyreactivity |
| QVQLVESGGGLVQAGGSLRLSCAASGITLYKYTMGWYRQAPGKERELVAAISGGGSTTYADSVKGRFTISRDNAKNTVYLQMNSLKPEDTAVYYCNVPGGKPSYYEEYGYWGQGTQVTVSS | low polyreactivity |
| QVQLVESGGGLVQAGGSLRLSCAASGRTFANYAMGWYRQAPGKERELVAAISSGGNTYYADSVKGRFTISRDNAKNTVYLQMNSLKPEDTAVYYCNAPWYYRYQRNEYGYWGQGTQVTVSS | high polyreactivity |
| QVQLVESGGGLVQAGGSLRLSCAASGRTFPYYAMGWYRQATGKERELVAAITTNDGDTYYADSVKGRFTISRDNAKNTVYLQMNSLKPEDTAVYYCSADSGSTSEYEYWGQGTQVTVSS | low polyreactivity |
| QVQLVESGGGLVQAGGSLRLSSADSGRIFRGYAMRLYRQAAGKVREFVAAISWGGGSKYYADSEKGRFTISRDNPKNTVYLQMNSLTPEDSAVYYCAAGSPYAYNYWGQGPQVTVSS | high polyreactivity |
| QVQLVESGGGLVQAGGSLRLSCAASGSIFPYYAMGWYRQAPGKERELVASISRSVGSTFYADSVKGRFTISRDNAKNTVYLQMNSLKPEDTAVYYCAVRYFAQFGDYDYWGQGTQVTVSS | high polyreactivity |
| QVQLVESGGGLVQAGGSLRLSCAASGRTFDGYAMGWYRQAPGKERELVAAIDGGGSTNYADSVKGRFTISRDNAKNTVYLQMNSLKPEDTAVYYCAADRGSGPGYDYWGQGTQVTVSS | low polyreactivity |
| QVQLVESGGGLVQAGGSLRLSCAASGRIFPYYAMGWSRQAPGKVRELVAAISVSDVRTYYPDSVKGRFTISRDNAKNTVYLQMNSLKPEDTAVYYCAAYWYRSPQSGLDYWGQGTQVTVSS | low polyreactivity |
| QVQLQERGGGLVQVGGSQRLSCAASGNIFYNYAMGWYRHAQGKEREFDATINHGTSINYADSVKGRFTISRDNAKNSVYLQMNSLKPEDTAVYYCAADLSWTDNLFYWGQGTQVTVSS | low polyreactivity |
| QVQLVESGGGLVQAGGSLRLSCAACGRISTAYAMGGYRQAPGTERELVAAISSGTSTTYADSVKGRFTISRDNAKNTVYLQMNSLKPEDTAVYYCAAPGRYGEYDYWGQGTQVTVSS | low polyreactivity |
| QVQLVDSGGGLVQAGGSLRLSCAASGRTFGGNAIGRYIQAPGKETELVAGINISGGSTNYADSVKGRFTISRDNAMNTVYLQMNSLKPEDTPVYYCNADTAVYAWDDDYWGQGTQVTVSS | low polyreactivity |
| QVQLVESGGGLVQAGGSLRLSCAASGIIFTYAMGWYRQAPGKERELVAAIDWRGGRTYYADSVKGRFTISRDNAKNNVYLQMNSLKPEDTAVFFCAARLPGGTYYWGQGTQVTVSS | high polyreactivity |
| QVQLVESGGGLDQAGGSLRLSCAASGRIFSRYTMGWYRQAPGKERELVAAISSGGGSNYADSVKGRFTISRDNAKNSVYLQMTSLNPEDTEVYYCNARSWLSRGYGYWGQGTQVTVSS | high polyreactivity |
| QVQLVDSGGGLVQAGGSLRLSCAASGRIFQQNAMGWYRQAPGKERELVAAISWRGTSTYYADSVKGRFTISRDNAKNTVYLQMNSLKPEDTAVYYCAAQGYAYTLVAKVYRWYEYAYWGQGTQVTVSS | high polyreactivity |
| QVQLVESGGGLVQAGGSLRLSCAASGSICGGYAMGWYRQAPGKERELVAGITRSGGSTYYADSVKGRFTISRDNAKNTVYLQMNSLKPEDTAVYYCAVEIQFYRSPRKVRSYDYWGQGTQVTVSS | low polyreactivity |
| QVQLVESGGGLDQAGGSLRISCAASGSTLLGNAMGWYRQAPGKERELVAAISTSGDSTNYADSVKGRFTISRDNAKNTVYLQMNSLKPEDTAVYYCNAGGYLISDVDRVGYWGQGTQVTVSS | low polyreactivity |
| QVQLVESGGGLVQAGGSLRLRCAASGFIFQINAMGWYRQAPGKEREFVAAISRSVGSTSYADSVKGRFTISRDNAKNTVYLQMNSLKPEDTAVYYCNAAQRKRKGPYDYWGQGTQVTVSS | high polyreactivity |
| QVQLVESGGGLVQAGGSLRLSCDASGITFIRNGMGWYRQAPGKERELVAAISDTGARTYYADSVKGRFTISRDNAKNTVYLQMNSLKPEDTAVYYCAAEVRTRYLYSFRWDDYWGQGTQVTVSS | low polyreactivity |

Source: the nanobody polyreactivity screen of Harvey et al. (2022)
